Reference: patent US20010046665A1, “Method of identifying the function of a test agent” (priority 2000, published 2001)

What was measured:
Format in all cases: cell-based
Design in all cases: key: *: up in IL-1α treatment; **: up in OPG treatment, down in thrombopoietin treatment; ***: up in IFNγ treatment; ****: up in IL-6 treatment
TF-1, Erythroleukemia = assay: GeneCalling confirmation of gene expression changes in TF-1 cells; details: confirmed by GeneCalling
MG-63, Osteosarcoma = assay: GeneCalling confirmation of gene expression changes in MG-63 cells; details: confirmed by GeneCalling; for Collagen gene expression change: up with OPG, down with thrombopoietin
U-87MG, Astrocytoma = assay: GeneCalling confirmation of gene expression changes in U-87MG cells; details: confirmed by GeneCalling

## IL-6: known protein used to treat the indicated cell lines in GeneCalling confirmation
TF-1, Erythroleukemia
  ICAM-1 gene expression change: ICAM-1****

## thrombopoietin: known protein used to treat the indicated cell lines in GeneCalling confirmation
MG-63, Osteosarcoma
  Collagen gene expression change: Collagen**

B1: IL-1α: known protein used to treat the indicated cell lines in GeneCalling confirmation (protein, UniProt P01583 113-271, looked up)
Interleukin-1 alpha: SAPFSFLSNVKYNFMRIIKYEFILNDALNQSIIRANDQYLTAAALHNLDEAVKFDMGAYKSSKDDAKITVILRISKTQLYVTAQDEDQPVLLKEMPEIPKTITGSETNLLFFWETHGTKNYFTSVAHPNLFIATKQDYWVCLAGGPPSITDFQILENQA
MG-63, Osteosarcoma
  Factor B gene expression change: Factor B*
  IL-8 gene expression change: IL-8*
  IRF-1 gene expression change: IRF-1*
  LOX gene expression change: LOX*
  MxA gene expression change: MxA*
  TAP-1 gene expression change: TAP-1*
U-87MG, Astrocytoma
  IL-8 gene expression change: IL-8*
  MCP-1 gene expression change: MCP-1*
  Tenascin-c gene expression change: Tenascin-c*

B2: IFNγ: known protein used to treat the indicated cell lines in GeneCalling confirmation (protein, UniProt P01579 24-161, looked up)
Interferon gamma: QDPYVKEAENLKKYFNAGHSDVADNGTLFLGILKNWKEESDRKIMQSQIVSFYFKLFKNFKDDQSIQKSVETIKEDMNVKFFNSNKKKRDDFEKLTNYSVTDLNVQRKAIHELIQVMAELSPAAKTGKRKRSQMLFRG
U-87MG, Astrocytoma
  IRF-1 gene expression change: IRF-1***
TF-1, Erythroleukemia
  IRF-1 gene expression change: IRF-1***

B3: OPG: known protein used to treat the indicated cell lines in GeneCalling confirmation (protein, UniProt O00300 22-401, looked up)
Tumor necrosis factor …: ETFPPKYLHYDEETSHQLLCDKCPPGTYLKQHCTAKWKTVCAPCPDHYYTDSWHTSDECLYCSPVCKELQYVKQECNRTHNRVCECKEGRYLEIEFCLKHRSCPPGFGVVQAGTPERNTVCKRCPDGFFSNETSSKAPCRKHTNCSVFGLLLTQKGNATHDNICSGNSESTQKCGIDVTLCEEAFFRFAVPTKFTPNWLSVLVDNLPGTKVNAESVERIKRQHSSQEQTFQLLKLWKHQNKDQDIVKKIIQDIDLCENSVQRHIGHANLTFEQLRSLMESLPGKKVGAEDIEKTIKACKPSDQILKLLSLWRIKNGDQDTLKGLMHALKHSKTYHFPKTVTQSLKKTIRFLHSFTMYKLYQKLFLEMIGNQVQSVKISCL
MG-63, Osteosarcoma
  Collagen gene expression change: Collagen**
